# Measured values: article PMC11800091 (iScience, 2025)
# B1: 3E3 nanobody (VHH)
# VHH: EVQLVESGGGLVQPGGSLRLSCAASQFTLESYAIGWFRQAPGKDSEGVACISSSTYYADSVKGRFTISRDNAKNTVYLQMESLKPEDTAVYHCATSGAGSYCTLRAFGSWGQGTQVTVSS
# B2: LPETG sortag-3E3 nanobody (VHH)
# VHH: B1 VHH
# Experiments:
# [1] = biological target: human immunodeficiency virus type 1 JR-CSF Fc-gp120 protein (HIV-1 JR-CSF) (UniProt P20871); experiment: BLI
# [2] = biological target: human immunodeficiency virus type 1 JR-CSF Fc-gp120 protein (HIV-1 JR-CSF, UniProt P20871); experiment: BLI
Molecule,Kd [1] [nM],Kd [2] [nM]
LPETG sortag-J3 nanobody (VHH),1.92,
B1,,3.33
B2,,2.51
